T1: SACE_0303 (TetR-family regulator) (Saccharopolyspora erythraea) (UniProt A4F6H8)
T1 sequence: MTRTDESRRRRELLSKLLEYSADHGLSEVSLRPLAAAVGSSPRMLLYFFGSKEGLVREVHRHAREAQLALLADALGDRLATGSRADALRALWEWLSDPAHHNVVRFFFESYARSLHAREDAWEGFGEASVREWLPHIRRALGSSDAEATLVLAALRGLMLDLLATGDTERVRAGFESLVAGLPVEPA

T2: SACE_0303 (TetR-family regulator) (Saccharopolyspora erythraea, UniProt A4F6H8 1-187)
T2 sequence: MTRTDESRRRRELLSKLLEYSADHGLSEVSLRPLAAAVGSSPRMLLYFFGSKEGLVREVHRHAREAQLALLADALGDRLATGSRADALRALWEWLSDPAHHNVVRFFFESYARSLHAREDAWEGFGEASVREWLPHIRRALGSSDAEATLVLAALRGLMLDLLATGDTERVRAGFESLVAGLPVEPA

B1: P0303-0304-56 bpM (dsDNA)
DNA 1: GGGTCATCCGGATATCGTAAAGCTTGGACTGGAATTCGAGGGCGCATGGGCGGCAT
DNA 2: ATGCCGCCCATGCGCCCTCGAATTCCAGTCCAAGCTTTACGATATCCGGATGACCC

Assays:
[1] = target: T1, SACE_0303 (TetR-family regulator) (Saccharopolyspora erythraea); assay: EMSA; conditions: EMSA: 10 mM Tris-HCl pH 7.5, 60 mM KCl, 50 mM EDTA (so in the source), 10 mM DTT, 5 mM MgCl2, 10% glycerol, 150 ng probe, 20 uL, 30 C 20 min; footprint at 20 C
[2] = target: T1, SACE_0303 (TetR-family regulator) (Saccharopolyspora erythraea); assay: DNase I footprinting; conditions: EMSA: 10 mM Tris-HCl pH 7.5, 60 mM KCl, 50 mM EDTA (so in the source), 10 mM DTT, 5 mM MgCl2, 10% glycerol, 150 ng probe, 20 uL, 30 C 20 min; footprint at 20 C
[3] = target: T2, SACE_0303 (TetR-family regulator); assay: EMSA; EMSA: 10 mM Tris-HCl pH 7.5, 60 mM KCl, 50 mM EDTA (so in the source), 10 mM DTT, 5 mM MgCl2, 10% glycerol, 150 ng probe, 20 uL, 30 C 20 min; footprint at 20 C; conditions: protein: recombinant; tags: His6 (pET28a, NdeI/HindIII); chain copies: 2; blunt

Molecule | binding [1] | binding [2] | binding result [3]
AGCTTTGACAGGTCCGCCACGCGTCCCCCTACTCGACGACCACGCAATGGGCGAACAATATAGGAAGGATCAAGAGGTTGACATCGCCTCGTCGAGCCAACGAACCTGTGAACATCTGCATGTTGACAAGATCAACGGCGGCTACCTACTGTGGTGGCCCAGTGACGGGTTGCCGCACATCGCGCTGGGGAGATTCTTTGAATTTCGCCCGTAGCACCGACCTGGAAAGCGAGCAAATGCTCCGGTGAATGGGATCAGTGATTC (double strand) [PeryAI] | no binding | – | –
CGACCTCGGCCGCCTGCTGTCCTGCCGGCGGGCGGCACGTGCCGCGGTCCGCTGAAACGGTTGCGAAAACGGGAAATCACCGCTGAGGGTGGCCGCCGCCGGCGGATTGCGCCGCCGAGATCGGCATGCCTAGGCTTCCACCACCGCTCCATCACGTGCGGGGTCCGGGTCCGGGAGCAGCCGATGCCGCAAGACGCGTGTACTTCCGCCCGGCAGAACACGTCCTCG (double strand) [P3156] | binds | – | –
CGCTGGATCCTACCAACCGGCACGATTGTCCAGCCCACAACAGCATCGCGGTGCCACGTGTGGACCGCGTCGGTCAGATCCTCCCCGCACCTCTCGCCAGCCGTCAAGATCGACCGCGTGCACCTGCGATCGCCGATCAACCGCGACTAGCATCGGGCGCAAGCCGCCACTCGAACGGACACTCGC (double strand) [PermE] | no binding | – | –
GGCGACGGCGGCTTTCGTCGGTGCGGGTCATCCGGATATCGTACTGAAACGACTGTTTCAGGAGGGCGCATGGGCGGCATCGAGATCCGCACCGGCCCGC (double strand) [P0303-0304] | binds | binds | –
B1 | – | – | no binding

Reference: publication PMC8476842, “Uncovering and Engineering a Mini-Regulatory Network of the TetR-Family Regulator SACE_0303 for Yield Improvement of Erythromycin in Saccharopolyspora erythraea”
